Measurements published in article PMC5122344, “Nuclear delivery of recombinant OCT4 by chitosan nanoparticles for transgene-free generation of protein-induced pluripotent stem cells”.

B1: octamer oligonucleotide (Ig heavy chain enhancer) (dsDNA)
DNA 1: GCCGAATTTGCATATTTGCATGGCTG
DNA 2: CAGCCATGCAAATATGCAAATTCGGC
B2: unlabeled octamer oligonucleotide (dsDNA)
DNA 1: GCCGAATTTGCATATTTGCATGGCTG
DNA 2: CAGCCATGCAAATATGCAAATTCGGC

Experiments:
GST-OCT4 [1] = target: T1, GST-OCT4 (human, UniProt Q01860 1-360); assay: EMSA; soluble OCT4, 30 ng per lane; LI-COR Odyssey EMSA kit 1x binding buffer (composition and pH not given), 2.5 mM DTT, 0.25% Tween-20, 1 ug poly(dI-dC) in 20 ul, 20 min at RT; 4% native PAGE in 0.5x TBE; details: protein: recombinant; tags: GST (N-terminal, pAcG2T); label: IRDye 700; (only one strand printed)
GST-OCT4 [2] = target: T1, GST-OCT4; assay: competition; 50-fold excess unlabeled oligonucleotide abolishes complex; LI-COR Odyssey EMSA kit 1x binding buffer (composition and pH not given), 2.5 mM DTT, 0.25% Tween-20, 1 ug poly(dI-dC) in 20 ul, 20 min at RT; 4% native PAGE in 0.5x TBE; details: protein: recombinant; tags: GST (N-terminal, pAcG2T); label: none; (only one strand printed)

T1 sequence (Q01860 whole entry): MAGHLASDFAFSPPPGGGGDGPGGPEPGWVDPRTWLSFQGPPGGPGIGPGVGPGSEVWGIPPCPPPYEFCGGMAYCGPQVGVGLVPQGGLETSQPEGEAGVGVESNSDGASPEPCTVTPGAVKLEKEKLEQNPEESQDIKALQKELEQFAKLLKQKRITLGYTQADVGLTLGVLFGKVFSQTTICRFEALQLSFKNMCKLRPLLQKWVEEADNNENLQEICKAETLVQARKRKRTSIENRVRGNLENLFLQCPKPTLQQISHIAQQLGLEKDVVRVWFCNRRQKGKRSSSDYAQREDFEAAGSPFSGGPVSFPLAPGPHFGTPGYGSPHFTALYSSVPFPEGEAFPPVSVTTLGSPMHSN

Binder | binding result (GST-OCT4 [1]) | binding result (GST-OCT4 [2])
B1 | binds | –
B2 | – | binds
